According to US6043072, “Nucleic acids encoding Taxus geranylgeranyl diphosphate synthase, and methods of use” (Washington State University Research Foundation, dated 2000):

Target: the molecule itself
Assay: gel permeation chromatography on calibrated Superdex G-75 (about 60,000 against the predicted monomer of 32.1 kDa) with SDS-PAGE; self-association (homodimer)
Description: After centrifugation as above, the cell pellet was resuspended in 80 ml of ice cold 50 mM Tris (pH 7.6) containing 10% (v/v) glycerol, 10 mM MgCl_2, 5 mM DTT, and 1 μg/ml leupeptin (extraction/assay buffer). All subsequent operations were conducted at 0–4° C. Cells were disrupted with 150 ml glass beads using a Biospec Bead-Beater operated at 90 V for 5 min, and the resulting debris was removed by centrifugation at 3000 g for 20 min to yield a supernatant that was further clarified by centrifugation at 31,000 g for 20 min. The resulting supernatant was used as the enzyme source.

B1: T. canadensis GGPP synthase Tr^295 truncated protein (enzyme)
chain: FDFNEYMKSKAVAVDAALDKAIPLEYPEKIHESMRYSLLAGGKRVRPALCIAACELVGGSQDLAMPTACAMEMIHTMSLIHDDLPCMDNDDFRRGKPTNHKVFGEDTAVLAGDALLSFAFEHIAVATSKTVPSDRTLRVISELGKTIGSQGLVGGQVVDITSEGDANVDLKTLEWIHIHKTAVLLECSVVSGGILGGATEDEIARIRRYARCVGLLFQVVDDILDVTKSSEELGKTAGKDLLTDKATYPKLMGLEKAKEFAAELATRAKEELSSFDQIKAAPLLGLADYIAFRQN
  binding result: binds
